Target: H3-I53_dn5B trimer (H3 HA ectodomain fused to the N terminus of I53_dn5B) (influenza A virus (H3N2))
Assay: SEC

“H3-I53_dn5B trimer (H3 HA ectodomain fused to the N terminus of I53_dn5B)” showed a stoichiometry N of 3.

Source: paper PMC8269962 (Nature, 2021)
